Experimental findings from patent publication US7939490 are described below.

A word on the Kd: it is the constant that tells how readily two partners part at equilibrium. A high value points to lower affinity.

The target in the assay is Fn14-Fc fusion protein (murine Fn14 extracellular domain fused to the hinge and Fc of mouse IgG1, with myc and His tags) (murine). The assay can be described thus: ELISA, plate coated with Fn14-Fc, serial dilutions of FLAG-tagged TWEAK. In general terms: In an ELISA, binding on a coated surface is turned into a signal by an enzyme label.
Sequence of Fn14-Fc fusion protein (murine Fn14 extracellular domain fused to the hinge and Fc of mouse IgG1, with myc and His tags) (murine) (chain, as listed by the source): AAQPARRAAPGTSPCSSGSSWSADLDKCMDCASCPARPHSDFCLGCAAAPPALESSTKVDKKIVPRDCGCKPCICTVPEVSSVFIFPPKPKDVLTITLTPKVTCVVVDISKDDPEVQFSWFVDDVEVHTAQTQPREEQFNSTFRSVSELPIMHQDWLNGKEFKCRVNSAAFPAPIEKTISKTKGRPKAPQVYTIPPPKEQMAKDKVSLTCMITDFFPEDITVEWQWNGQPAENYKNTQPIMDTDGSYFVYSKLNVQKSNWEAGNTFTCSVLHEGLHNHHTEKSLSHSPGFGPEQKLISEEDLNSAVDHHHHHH

The substance FLAG epitope-tagged TWEAK (ligand) returned a Kd of 1.1 nM.
